Residue numbers refer to the chain shown, from its start.
Experiments:
[1] = target: wild type human growth hormone, P01241
wild type human growth hormone, P01241, sequence (P01241 27-217): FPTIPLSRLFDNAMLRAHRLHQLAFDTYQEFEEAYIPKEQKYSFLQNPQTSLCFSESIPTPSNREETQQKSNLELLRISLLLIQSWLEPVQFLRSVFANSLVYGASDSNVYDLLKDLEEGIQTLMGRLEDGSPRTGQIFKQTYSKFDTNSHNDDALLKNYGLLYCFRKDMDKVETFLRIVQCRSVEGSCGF

hGHQ40N, P01241, sequence (P01241 27-217 Q66N): as the sequence (P01241 27-217) above, with Q40N counted along it
hGHQ141N, P01241, sequence (P01241 27-217 Q167N): as the sequence (P01241 27-217) above, with Q141N counted along it

B1: AlaPro-mTGase from S. mobaraensis (protein)
chain: APDSDDRVTPPAEPLDRMPDPYRPSYGRAETVVNNYIRKWQQVYSHRDGRKQQMTEEQREWLSYGCVGVTWVNSGQYPTNRLAFASFDEDRFKNELKNGRPRSGETRAEFEGRVAKESFDEEKGFQRAREVASVMNRALENAHDESAYLDNLKKELANGNDALRNEDARSPFYSALRNTPSFKERNGGNHDPSRMKAVIYSKHFWSGQDRSSSADKRKYGDPDAFRPAPGTGLVDMSRDRNIPRSPTSPGEGFVNFDYGWFGAQTEADADKTVWTHGNHYHAPNGSLGAMHVYESKFRNWSEGYSDFDRGAYVITFIPKSWNTAPDKVKQGWP
Q: How did the “conversion rate, CE, reaction time 30 minutes” value [1] turn out when B1 was run?
A: conversion rate=32%

Q: And the hGH conv. rate (%) [1]?
A: 33%

Q: What about the hGH conv. rate (%), reference of the separate experiment [1] of the same protein?
A: 39%

Q: What about the Activity towards hGHQ40N (RFU/sec/µg) (hGHQ40N, P01241) of the same protein?
A: 5.05 RFU/sec/µg

Q: What about the Activity towards hGHQ141N (RFU/sec/µg) (hGHQ141N, P01241) of the same protein?
A: 1.56 RFU/sec/µg

B2: GlyPro-mTGase from S. mobaraensis (protein)
chain: B1 chain with A1G
Q: What does the source list for B2?
A: Activity towards hGHQ40N (RFU/sec/µg) (hGHQ40N, P01241): 4.28 RFU/sec/µg; Activity towards hGHQ141N (RFU/sec/µg) (hGHQ141N, P01241): 1.13 RFU/sec/µg

B3: AlaPro-mTGase from S. ladakanum (protein)
chain: APDSDERVTPPAEPLDRMPDPYRPSYGRAETIVNNYIRKWQQVYSHRDGRKQQMTEEQREWLSYGCVGVTWVNSGQYPTNRLAFAFFDEDKYKNELKNGRPRSGETRAEFEGRVAKDSFDEAKGFQRARDVASVMNKALENAHDEGAYLDNLKKELANGNDALRNEDARSPFYSALRNTPSFKDRNGGNHDPSKMKAVIYSKHFWSGQDRSGSSDKRKYGDPEAFRPDRGTGLVDMSRDRNIPRSPTSPGESFVNFDYGWFGAQTEADADKTVWTHGNHYHAPNGSLGAMHVYESKFRNWSDGYSDFDRGAYVVTFVPKSWNTAPDKVKQGWP
Q: With B3 as the protein, how does the Activity towards hGHQ40N (RFU/sec/µg) (hGHQ40N, P01241) read?
A: 6.91 RFU/sec/µg

Q: And the Activity towards hGHQ141N (RFU/sec/µg) (hGHQ141N, P01241)?
A: 1.02 RFU/sec/µg

B4: GlyPro-mTGase_Y62H_Y75N from S. ladakanum (protein)
chain: B3 chain with A1G, Y64H, Y77N
Q: With B4 as the protein, how does the hGH conv. rate (%) [1] read?
A: 38%

B5: GlyPro-mTGase from S. ladakanum (protein)
chain: B3 chain with A1G
Q: With B5 as the protein, how does the hGH conv. rate (%) [1] read?
A: 55%

Q: What about the Activity towards hGHQ40N (RFU/sec/µg) (hGHQ40N, P01241) of the same protein?
A: 4.25 RFU/sec/µg

Q: And the Activity towards hGHQ141N (RFU/sec/µg) (hGHQ141N, P01241)?
A: 0.48 RFU/sec/µg

B6: GlyPro-mTGase_Y75N from S. ladakanum (protein)
chain: B3 chain with A1G, Y77N
Q: How did the hGH conv. rate (%) [1] turn out when B6 was run?
A: 44%

Q: What about the “hGH conversion rate, CE, reaction time 90 m” value [1] of the same protein?
A: hGH conversion rate=50%

B7: GlyPro-mTGase_Y62H_Y75F from S. ladakanum (protein)
chain: B3 chain with A1G, Y64H, Y77F, K329T
Q: What does the source list for B7?
A: RS (relative selectivity), separate experiment [1]: 7.6; Selectivity (Q141/Q40), CE, separate experiment [1]: 76.5; hGH conv. rate (%) [1]: 49.4%; hGH conv. rate (%), separate experiment [1]: 38.1%

B8: GlyPro-mTGase_Y75F from S. ladakanum (protein)
chain: B3 chain with A1G, Y77F
Q: With B8 as the protein, how does the hGH conv. rate (%) [1] read?
A: 41%

Q: What about the “hGH conversion rate, CE, reaction time 75 m” value [1] of the same protein?
A: hGH conversion rate=33%

B9: mature mTGase from Streptoverticillium ladakanum (protein)
chain: DSDERVTPPAEPLDRMPDPYRPSYGRAETIVNNYIRKWQQVYSHRDGRKQQMTEEQREWLSYGCVGVTWVNSGQYPTNRLAFAFFDEDKYKNELKNGRPRSGETRAEFEGRVAKDSFDEAKGFQRARDVASVMNKALENAHDEGAYLDNLKKELANGNDALRNEDARSPFYSALRNTPSFKDRNGGNHDPSKMKAVIYSKHFWSGQDRSGSSDKRKYGDPEAFRPDRGTGLVDMSRDRNIPRSPTSPGESFVNFDYGWFGAQTEADADKTVWTHGNHYHAPNGSLGAMHVYESKFRNWSDGYSDFDRGAYVVTFVPKSWNTAPDKVKQGWP
Q: What does the source list for B9?
A: Activity towards hGHQ40N (RFU/sec/µg) (hGHQ40N, P01241): 3.55 RFU/sec/µg; HPLC peak area of product-Q141 (hGHQ40N, P01241): area 1238; Q40N (remaining substrate, normalized to 100) (normalized to 100) (hGHQ40N, P01241): 23; product-Q141 (normalized to 100) (normalized to 100) (hGHQ40N, P01241): 77; Activity towards hGHQ141N (RFU/sec/µg) (hGHQ141N, P01241): 0.63 RFU/sec/µg; HPLC peak area of product-Q40 (hGHQ141N, P01241): area 127; Q141N (remaining substrate, normalized to 100) (normalized to 100) (hGHQ141N, P01241): 90; product-Q40 (normalized to 100) (normalized to 100) (hGHQ141N, P01241): 10

B10: mTGase from Streptomyces mobaraensis (protein)
chain: DSDDRVTPPAEPLDRMPDPYRPSYGRAETVVNNYIRKWQQVYSHRDGRKQQMTEEQREWLSYGCVGVTWVNSGQYPTNRLAFASFDEDRFKNELKNGRPRSGETRAEFEGRVAKESFDEEKGFQRAREVASVMNRALENAHDESAYLDNLKKELANGNDALRNEDARSPFYSALRNTPSFKERNGGNHDPSRMKAVIYSKHFWSGQDRSSSADKRKYGDPDAFRPAPGTGLVDMSRDRNIPRSPTSPGEGFVNFDYGWFGAQTEADADKTVWTHGNHYHAPNGSLGAMHVYESKFRNWSEGYSDFDRGAYVITFIPKSWNTAPDKVKQGWP
Q: What does the source list for B10?
A: Activity towards hGHQ40N (RFU/sec/µg) (hGHQ40N, P01241): 3.35 RFU/sec/µg; HPLC peak area of product-Q141 (hGHQ40N, P01241): area 1283; Q40N (remaining substrate, normalized to 100) (normalized to 100) (hGHQ40N, P01241): 29; product-Q141 (normalized to 100) (normalized to 100) (hGHQ40N, P01241): 71; Activity towards hGHQ141N (RFU/sec/µg) (hGHQ141N, P01241): 0.98 RFU/sec/µg; HPLC peak area of product-Q40 (hGHQ141N, P01241): area 296; Q141N (remaining substrate, normalized to 100) (normalized to 100) (hGHQ141N, P01241): 81; product-Q40 (normalized to 100) (normalized to 100) (hGHQ141N, P01241): 19

B11: Met-mTGase from S. mobaraensis (protein)
chain: MDSDDRVTPPAEPLDRMPDPYRPSYGRAETVVNNYIRKWQQVYSHRDGRKQQMTEEQREWLSYGCVGVTWVNSGQYPTNRLAFASFDEDRFKNELKNGRPRSGETRAEFEGRVAKESFDEEKGFQRAREVASVMNRALENAHDESAYLDNLKKELANGNDALRNEDARSPFYSALRNTPSFKERNGGNHDPSRMKAVIYSKHFWSGQDRSSSADKRKYGDPDAFRPAPGTGLVDMSRDRNIPRSPTSPGEGFVNFDYGWFGAQTEADADKTVWTHGNHYHAPNGSLGAMHVYESKFRNWSEGYSDFDRGAYVITFIPKSWNTAPDKVKQGWP
Q: Which results are given for B11?
A: Activity towards hGHQ40N (RFU/sec/µg) (hGHQ40N, P01241): 5.44 RFU/sec/µg; Activity towards hGHQ141N (RFU/sec/µg) (hGHQ141N, P01241): 1.24 RFU/sec/µg

B12: Met-mTGase from S. ladakanum (protein)
chain: MDSDERVTPPAEPLDRMPDPYRPSYGRAETIVNNYIRKWQQVYSHRDGRKQQMTEEQREWLSYGCVGVTWVNSGQYPTNRLAFAFFDEDKYKNELKNGRPRSGETRAEFEGRVAKDSFDEAKGFQRARDVASVMNKALENAHDEGAYLDNLKKELANGNDALRNEDARSPFYSALRNTPSFKDRNGGNHDPSKMKAVIYSKHFWSGQDRSGSSDKRKYGDPEAFRPDRGTGLVDMSRDRNIPRSPTSPGESFVNFDYGWFGAQTEADADKTVWTHGNHYHAPNGSLGAMHVYESKFRNWSDGYSDFDRGAYVVTFVPKSWNTAPDKVKQGWP
Q: What does the source list for B12?
A: Activity towards hGHQ40N (RFU/sec/µg) (hGHQ40N, P01241): 4.74 RFU/sec/µg; Activity towards hGHQ141N (RFU/sec/µg) (hGHQ141N, P01241): 0.8 RFU/sec/µg
